Like-named read-outs stand apart in the source and are kept apart here.
T1: Rat IL-17A (rat, UniProt Q61453 18-150, limits assumed)
T1 sequence (looked up): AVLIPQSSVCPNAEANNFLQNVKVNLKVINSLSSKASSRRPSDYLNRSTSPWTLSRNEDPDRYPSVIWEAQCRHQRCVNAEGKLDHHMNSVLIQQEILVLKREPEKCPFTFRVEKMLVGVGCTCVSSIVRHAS

T2: Mouse IL-17A (Mu IL-17A) (mouse, UniProt Q62386 26-158)
T2 sequence (looked up): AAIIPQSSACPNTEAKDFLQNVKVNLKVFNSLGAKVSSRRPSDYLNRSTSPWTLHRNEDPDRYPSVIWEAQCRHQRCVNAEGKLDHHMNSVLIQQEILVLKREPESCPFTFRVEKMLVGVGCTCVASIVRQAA


Columns and labels:
[1] = target: T3, Recombinant human IL-17A (rhIL-17A), R&D Systems Cat.No.317-ILB (human, UniProt Q16552 20-155, limits assumed); experiment: cell-based or functional assay
T3 sequence (Q16552 20-155 limits assumed): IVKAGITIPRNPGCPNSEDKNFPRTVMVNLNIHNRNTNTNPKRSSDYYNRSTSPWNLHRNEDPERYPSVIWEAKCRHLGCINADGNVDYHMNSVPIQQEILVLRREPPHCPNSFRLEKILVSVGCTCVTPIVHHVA

[2] = target: T4, Recombinant human IL-17A/F (rhIL-17A/F), R&D System Cat No.5194-IL/CF (human, UniProt Q16552 20-155; Q96PD4 31-163, limits assumed); experiment: cell-based or functional assay
T4 sequence (Q16552 20-155 limits assumed, chain 1 of 2): as the sequence (Q16552 20-155 limits assumed) above
T4 sequence (Q96PD4 31-163 limits assumed, chain 2 of 2): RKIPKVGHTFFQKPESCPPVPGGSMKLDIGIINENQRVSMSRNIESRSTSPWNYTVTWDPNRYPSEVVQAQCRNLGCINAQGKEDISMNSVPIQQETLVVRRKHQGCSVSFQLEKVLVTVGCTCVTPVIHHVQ

[3] = target: Cyno IL-17A (cynomolgus, UniProt A0A2K5TTB0 24-155); experiment: cell-based or functional assay
Cyno IL-17A, sequence (A0A2K5TTB0 entry or part of it): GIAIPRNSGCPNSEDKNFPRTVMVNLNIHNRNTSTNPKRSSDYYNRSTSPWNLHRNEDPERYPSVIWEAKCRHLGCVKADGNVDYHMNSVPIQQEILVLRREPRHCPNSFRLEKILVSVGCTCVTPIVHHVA

[4] = target: T5, Human IL-17A (hIL-17A), expressed in HEK293E (human, UniProt Q16552 24-155); experiment: SPR (Biacore X100), antibody captured on the chip, IL-17A as analyte
T5 sequence (Q16552 24-155 limits assumed): as the sequence (A0A2K5TTB0 entry or part of it) above, with A3T, S8P, S34N, V77I, K78N, R104P counted along it
Experimental: (§1) 2. Binding kinetics Test: FC1 (Flow cell 1) was used as the reference channel, FC2 (Flow cell 2) was used as the sample channel, and murine or humanized control antibody or the antibody of the present invention was captured in the FC2 channel at 300RU, followed by the injection of different concentrations of IL-17 (including hIL-17A, MuIL-17, Rat IL-17). Cycle conditions were: injecting analytes into all FC channels at 30 μl/min for 3min, dissociation for 20 min, injecting 10 mM Glycine, pH 1.5, for 60 s (at rate of 10 μl/min) for surface regeneration. The difference between the signal with captured antibody and the signal without captured antibody was calculated using Biacore X100 evaluation software ver 2.0 (Biacore), and the running buffer was 10 mM Hepes, […], 3 mM EDTA, 0.05% Tween-20.
(§2) 2. Humanized IL-17 antibodies obtained from Example 2 were tested using the above method, and the results were as follows: […]

[5] = target: T1, Rat IL-17A; experiment: SPR (Biacore X100), antibody captured on the chip, rat IL-17 as analyte
Experimental: as §1, §2

[6] = target: T2, Mouse IL-17A (Mu IL-17A); experiment: SPR (Biacore X100), antibody captured on the chip, mouse IL-17 as analyte
Experimental: as §1, §2

[7] = target: T3, Recombinant human IL-17A (rhIL-17A), …; experiment: cell-based or functional assay; remark: listed apart in the source
[8] = target: T4, Recombinant human IL-17A/F …; experiment: cell-based or functional assay; remark: listed apart in the source
[9] = target: T5, Human IL-17A (hIL-17A), expressed in …; experiment: SPR (Biacore X100), antibody captured on the chip, IL-17A as analyte; remark: listed apart in the source
Experimental: as §1
1. Hybridomas obtained in Example 1 were tested using the above method, and the results were as follows: […]

[10] = target: T5, Human IL-17A (hIL-17A), expressed in …; experiment: indirect ELISA, hIL-17A or hIL-17A/F on streptavidin plates, OD450 against Lilly mAb and Novartis mAb
Experimental: 6. The positive controls, Lilly mAb and Novartis mAb, or murine mAbs antibodies of the present invention were titrated at a 1:5 dilution, with an initial concentration of 1 μg/ml. 100 μl of diluted positive control or murine antibody of the present invention were added to each well, and the plates were thermostatically incubated at 37° C. for 1 h. Each concentration was tested in duplicate;
10. The OD value at a wavelength of 450 nm was read on an ELISA microplate reader (Molecular Devices, Spectra Max).
11. The OD values of the murine mAb antibodies were compared to those of the positive controls. Monoclonal cell lines with a ratio greater than 1, including IL17-mAb049, were screened.

[11] = target: T6, biotin-labeled IL-17A (human, UniProt Q16552 24-155, limits assumed, biotin-labeled (sites not given)); experiment: receptor blocking ELISA (RBA): antibody titrated against biotin-labeled IL-17A binding to captured IL-17RA-Fc
T6 construct: also called huIL-17
T6 sequence (Q16552 24-155 limits assumed): as the sequence (A0A2K5TTB0 entry or part of it) above, with A3T, S8P, S34N, V77I, K78N, R104P counted along it
Experimental: 6. The positive controls, Lilly mAb and Novartis mAb, or antibodies of the present invention were diluted at a 1:5 ratio, with an initial concentration of 40 μg/ml. mIgG was diluted using the same method. 50 μl of diluted positive control, murine antibody of the present invention, or mIgG were added to each well, and, 50 μof 0.2nM biotin-labeled IL-17A were added to the wells containing diluted positive control or the antibody of the present invention, mixed gently and the plates were thermostatically incubated at 37° C. for 1 h.
7. The plates were washed with PBST three times; 8. 100 μl of HRP-labeled streptavidin complex (1:5000) were added to each well, and the plates were thermostatically incubated at 37° C. for 1 h;

Binder | huIL-17 Bioassay (IC50, nM) [1] | huIL-17A/F Bioassay (IC50, nM) [2] | Cyno IL-17A (bioassay IC50) [3] | Kd [4] | Kd [5] | Kd [6] | huIL-17 Bioassay (IC50, nM) [7] | huIL-17A/F Bioassay (IC50, nM) [8] | Kd [9] | ratio of OD value to that of the positive controls [10] | IC50 [11]
Hu049-18 (antibody, V domains shown, Humanized mAb049) VH: EVQLVQSGAEVKKPGASVKVSCKASGYTFTDYEVHWVRQAPGQGLEWMGVIDPGTGGVAYNQKFEGRVTMTADTSTSTAYMELRSLRSDDTAVYYCTRYSLFYGSSPYAMDYWGQGTLVTVSS VL: EIVLTQSPDFQSVTPKEKVTITCSASSSVNYMHWFQQKPDQSPKLWIYRTSNLASGVPSRFSGSGSGTDYTLTINSLEAEDAATYYCQQRSSYPWTFGQGTKLEIKR | 0.04 nM | 0.684 nM | 0.033 nM | < 0.001 nM | 0.477 nM | 0.0681 nM | – | – | – | – | –
Hu049-17 (antibody, V domains shown, Humanized mAb049) VH: EVQLVQSGAEVKKPGASVKVSCKASGYTFTDYEVHWVRQAPGQGLEWMGVIDPGTGGVAYNQKFEGRVTMTTDTSTSTAYMELRSLRSDDTAVYYCTRYSLFYGSSPYAMDYWGQGTLVTVSS VL: EIVLTQSPDFQSVTPKEKVTITCSASSSVNYMHWFQQKPDQSPKLWIYRTSNLASGVPSRFSGSGSGTDYTLTINSLEAEDAATYYCQQRSSYPWTFGQGTKLEIKR | 0.061 nM | 0.406 nM | 0.03 nM | < 0.001 nM | 1.06 nM | 0.137 nM | – | – | – | – | –
Hu049-19 (antibody, V domains shown, Humanized mAb049) VH: EVQLVQSGAEVKKPGASVKVSCKASGYTFTDYEVHWVRQAPGQGLEWIGVIDPGTGGVAYNQKFEGRVTMTADTSTSTAYMELRSLRSDDTAVYYCTRYSLFYGSSPYAMDYWGQGTLVTVSS VL: EIVLTQSPDFQSVTPKEKVTITCSASSSVNYMHWFQQKPDQSPKLWIYRTSNLASGVPSRFSGSGSGTDYTLTINSLEAEDAATYYCQQRSSYPWTFGQGTKLEIKR | 0.066 nM | 0.411 nM | 0.039 nM | 0.00268 nM | 0.06 nM | 0.0771 nM | – | – | – | – | –
Hu049-20 (antibody, V domains shown) VH: EVQLVQSGAEVKKPGASVKVSCKASGYTFTDYEVHWVRQAPGQGLEWIGVIDPGTGGVAYNQKFEGRATLTADDSTNTAYMELRSLRSDDTAVYYCTRYSLFYGSSPYAMDYWGQGTLVTVSS VL: EIVLTQSPDFQSVTPKEKVTITCSASSSVNYMHWFQQKPDQSPKLWIYRTSNLASGVPSRFSGSGSGTDYTLTINSLEAEDAATYYCQQRSSYPWTFGQGTKLEIKR | 0.065 nM | 0.674 nM | 0.028 nM | – | – | – | – | – | – | – | –
IL17-mAb049 (antibody, V domains shown, Murine monoclonal antibody from a hybridoma; also called murine IL-17A mouse antibody mAb049) VH: HVQLQQSGADLVRPGASVTLSCKASGYIFTDYEVHWVKQTPVHGLEWIGVIDPGTGGVAYNQKFEGKATLTADDSSNTAYMELRSLTSEDSAVYYCTRYSLFYGSSPYAMDYWGQGTSVTVSS VL: QIVLTQSPAIMSASPGEKVTITCSASSSVNYMHWFQQKPGTSPKLWIYRTSNLASGVPVRFSGSGSGTSYSLTISRMEAEDAATYYCQQRSSYPWTFGGGTNLEIK | – | – | – | – | – | – | 0.04 nM | 0.46 nM | 0.0262 nM | 1 | 0.07 nM

From patent publication US20160289321A1 (SHANGHAI HENGRUI PHARMACEUTICAL, published 2016)
